Results from US20230357370A1.

Tests used:
[1] = biological target: RSV F peptide 51-66 (respiratory syncytial virus, A2 strain)
[2] = biological target: RSV F peptides F85-93 and F249-258 (respiratory syncytial virus, A2 strain)

Substance	CD4+ CD8- splenic T cells: % cytokine-positive, TNFa+ (intracellular cytokine immunofluorescence) [1]	CD8+ CD4- splenic T cells: % cytokine-positive, IFNg+ (intracellular cytokine immunofluorescence) [2]
splenic T cells of BALB/c mice vaccinated with A317 RNA delivered using electroporation (cells without a defined receptor)	0.05%	0.85%
splenic T cells of BALB/c mice vaccinated with A317 RNA formulated with CNE17 (cells without a defined receptor)	0.05%	1.25%
splenic T cells of BALB/c mice vaccinated with naked self-replicating RNA A317 (cells without a defined receptor)	0.03%	0.74%
splenic T cells of unvaccinated BALB/c mice (cells without a defined receptor)	0%	0.01%
splenic T cells of BALB/c mice vaccinated with VRPs expressing RSV-F (cells without a defined receptor)	0.1%	3.48%
splenic T cells of BALB/c mice vaccinated with A317 RNA in liposomes RV01(01) (cells without a defined receptor)	0.09%	3.69%
